The values below come from patent publication US7138262.

In this experiment the target is T1, mannose receptor on mouse J774E macrophage cells (mouse) (UniProt Q61830).
T1 sequence (looked up): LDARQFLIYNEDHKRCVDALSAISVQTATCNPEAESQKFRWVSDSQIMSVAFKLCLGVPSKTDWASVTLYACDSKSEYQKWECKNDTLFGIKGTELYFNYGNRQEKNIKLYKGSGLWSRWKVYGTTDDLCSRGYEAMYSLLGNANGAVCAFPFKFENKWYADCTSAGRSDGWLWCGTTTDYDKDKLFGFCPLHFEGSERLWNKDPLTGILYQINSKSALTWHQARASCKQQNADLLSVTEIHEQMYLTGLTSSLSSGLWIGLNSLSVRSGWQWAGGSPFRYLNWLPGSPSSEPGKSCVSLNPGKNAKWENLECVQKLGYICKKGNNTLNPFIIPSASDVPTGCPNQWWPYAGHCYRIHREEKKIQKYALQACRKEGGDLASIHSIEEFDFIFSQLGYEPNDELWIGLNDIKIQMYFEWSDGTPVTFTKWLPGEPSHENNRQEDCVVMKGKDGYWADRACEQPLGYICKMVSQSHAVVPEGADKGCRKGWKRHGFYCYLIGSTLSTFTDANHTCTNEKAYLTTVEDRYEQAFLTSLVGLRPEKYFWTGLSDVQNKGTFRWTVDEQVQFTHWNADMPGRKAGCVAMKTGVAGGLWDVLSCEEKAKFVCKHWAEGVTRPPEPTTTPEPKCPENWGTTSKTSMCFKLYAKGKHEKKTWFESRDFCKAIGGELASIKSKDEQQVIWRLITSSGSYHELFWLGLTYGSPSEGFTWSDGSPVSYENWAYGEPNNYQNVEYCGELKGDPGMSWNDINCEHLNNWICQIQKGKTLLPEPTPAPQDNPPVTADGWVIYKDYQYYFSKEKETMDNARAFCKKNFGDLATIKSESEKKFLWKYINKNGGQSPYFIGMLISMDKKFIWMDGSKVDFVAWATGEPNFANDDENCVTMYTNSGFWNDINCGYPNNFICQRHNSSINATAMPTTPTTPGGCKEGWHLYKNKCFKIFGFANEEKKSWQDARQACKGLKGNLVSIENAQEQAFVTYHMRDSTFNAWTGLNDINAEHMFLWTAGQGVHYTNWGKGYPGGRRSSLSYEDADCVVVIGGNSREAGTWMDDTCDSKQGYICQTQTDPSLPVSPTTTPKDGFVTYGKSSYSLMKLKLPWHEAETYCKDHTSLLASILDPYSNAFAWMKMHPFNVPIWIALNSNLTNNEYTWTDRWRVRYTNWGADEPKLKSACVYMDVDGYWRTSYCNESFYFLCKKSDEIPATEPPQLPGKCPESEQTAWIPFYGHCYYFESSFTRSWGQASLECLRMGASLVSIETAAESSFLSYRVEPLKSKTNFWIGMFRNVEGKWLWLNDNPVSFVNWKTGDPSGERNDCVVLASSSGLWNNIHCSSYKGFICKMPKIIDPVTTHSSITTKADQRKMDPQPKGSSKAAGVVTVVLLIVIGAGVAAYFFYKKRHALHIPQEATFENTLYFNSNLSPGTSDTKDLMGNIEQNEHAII
Briefly: cell-based or functional assay.

B1: Gene-Activated GCB (GA-GCB) from untreated HT-1080 cells (enzyme)
chain: ARPCIPKSFGYSSVVCVCNATYCDSFDPPTFPALGTFSRYESTRSGRRMELSMGPIQANHTGTGLLLTLQPEQKFQKVKGFGGAMTDAAALNILALSPPAQNLLLKSYFSEEGIGYNIIRVPMASCDFSIRTYTYADTPDDFQLHNFSLPEEDTKLKIPLIHRALQLAQRPVSLLASPWTSPTWLKTNGAVNGKGSLKGQPGDIYHQTWARYFVKFLDAYAEHKLQFWAVTAENEPSAGLLSGYPFQCLGFTPEHQRDFIARDLGPTLANSTHHNVRLLMLDDQRLLLPHWAKVVLTDPEAAKYVHGIAVHWYLDFLAPAKATLGETHRLFPNTMLFASEACVGSKFWEQSVRLGSWDRGMQYSHSIITNLLYHVVGWTDWNLALNPEGGPNWVRNFVDSPIIVDITKDTFYKQPMFYHLGHFSKFIPEGSQRVGLVASQKNDLDAVALMHPDGSAVVVVLNRSSKDVPLTIKDPAVGFLETISPGYSIHTYLWRRQ
modifications: N-linked glycans as processed by untreated HT-1080 cells (no mannosidase inhibitor)
On to B1, for which the Inhibition (%) of uptake into J774E cells by mannan stood at 53%; the Internalization into J774E cells in the presence of 2 µg/mL mannan: glucocerebrosidase activity (Units/mg cell lysate), absolute (Units/mg cell lysate) is 1680; the Internalization into J774E cells in the presence of 2 µg/mL mannan: glucocerebrosidase activity (Units/mg cell lysate), background corrected (Units/mg cell lysate) is 1020; the Internalization into J774E cells: glucocerebrosidase activity (Units/mg cell lysate), absolute (Units/mg cell lysate) was found to be 2820. For the same molecule, the Internalization into J774E cells: glucocerebrosidase activity (Units/mg cell lysate), background corrected (Units/mg cell lysate) amounted to 2160 and the Uptake into J774E cells, fold over background was 3 fold.

B2: Gene-Activated GCB (GA-GCB) from HT-1080 cells treated with kifunensine (1 µg/mL) (enzyme)
chain: B1 chain
modifications: N-linked high mannose glycans (cells treated with the class 1 mannosidase inhibitor kifunensine, 1 µg/mL)
For the molecule B2, the Inhibition (%) of uptake into J774E cells by mannan worked out at 73%; the Internalization into J774E cells in the presence of 2 µg/mL mannan: glucocerebrosidase activity (Units/mg cell lysate), absolute (Units/mg cell lysate) is 2980; the Internalization into J774E cells in the presence of 2 µg/mL mannan: glucocerebrosidase activity (Units/mg cell lysate), background corrected (Units/mg cell lysate) stood at 2320; the Internalization into J774E cells: glucocerebrosidase activity (Units/mg cell lysate), absolute (Units/mg cell lysate) amounted to 9180. The same molecule displayed an Internalization into J774E cells: glucocerebrosidase activity (Units/mg cell lysate), background corrected (Units/mg cell lysate) of 8530; an Uptake into J774E cells relative to GA-GCB from swainsonine treated cells of 2 fold; an Uptake into J774E cells, fold over background of 14 fold.

B3: Gene-Activated GCB (GA-GCB) from HT-1080 cells treated with swainsonine (1 µg/mL) (enzyme)
chain: B1 chain
modifications: N-linked glycans not trimmed by Golgi mannosidase II (cells treated with the class 2 mannosidase inhibitor swainsonine, 1 µg/mL)
With B3, the Inhibition (%) of uptake into J774E cells by mannan stood at 67%; the Internalization into J774E cells in the presence of 2 µg/mL mannan: glucocerebrosidase activity (Units/mg cell lysate), absolute (Units/mg cell lysate) is 2040; the Internalization into J774E cells in the presence of 2 µg/mL mannan: glucocerebrosidase activity (Units/mg cell lysate), background corrected (Units/mg cell lysate) stood at 1380; the Internalization into J774E cells: glucocerebrosidase activity (Units/mg cell lysate), absolute (Units/mg cell lysate) was 4790. Further, the Internalization into J774E cells: glucocerebrosidase activity (Units/mg cell lysate), background corrected (Units/mg cell lysate) amounted to 4130 and the Uptake into J774E cells, fold over background came to 7 fold.
